For the experiment, the target named is ZbmA, the zorbamycin (ZBM)-binding protein of Streptomyces flavoviridis ATCC21892 (unmodified, as cocrystallised with Cu(II)-ZBM) (Streptomyces flavoviridis ATCC21892). Briefly: crystal structure.

On to “ZbmA, the zorbamycin (ZBM)-binding protein of Streptomyces flavoviridis ATCC21892 (unmodified, as cocrystallised with Cu(II)-ZBM) (natural protein)”, for which the stoichiometry N was found to be 2.

The stoichiometry N is the number of molecules, sites or subunits per partner or assembly.

Source of the values: PMC4809751.
